{
  "source": "the supplement of paper PMC9170038",
  "key": {"MS2 coat protein [1]": {"system": "MS2 coat protein", "experiment": "apparent KD of MS2 coat protein, switch ON state; designed switch direction (-1 OFF switch, 1 ON switch): -1; higher = weaker reporter binding", "settings": "FMN input: 0 or 200 uM; Eterna round: R93 (includes R88 designs)", "method_in_brief": "(§1)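 Titration buffer: 100 mM Tris-HCl pH 7.5, 80 mM KCl, 4 mM MgCl2, without or with constant ligand. Designed RNA switches transcribed on-chip from Illumina sequencing clusters received SNAP-549-labelled MS2 coat protein in twofold steps from 0.7 or 1.5 nM to 3 µM. Apparent KD is the median per design of fits to normalised cluster binding curves.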"}, "MS2 coat protein [2]": {"system": "MS2 coat protein", "experiment": "apparent KD of MS2 coat protein, switch OFF state (with FMN for OFF switches, without FMN for ON switches); designed switch direction (-1 OFF switch, 1 ON switch): -1; higher = weaker reporter binding", "settings": "FMN input: 0 or 200 uM; Eterna round: R93 (includes R88 designs)", "method_in_brief": "as §1"}},
  "data": [
    {"sequence": "AAUAAGUGAGGAUAUCCAAAUAGUAGAUAAGAUUCCCUAAAGGAGAAGGCACAUGAGGAUCACCCAUGUAAAUA [JR_Exc004_Sub006]", "values": [
      {"measurement": "apparent KD of MS2 coat protein", "setting": "MS2 coat protein [1]", "result": 36.1, "unit": "nM"},
      {"measurement": "apparent KD of MS2 coat protein", "setting": "MS2 coat protein [2]", "result": 31.5, "unit": "nM"}
    ]},
    {"sequence": "AAGGUUCGAGGAUAUACAUAGAUACAGAUACAUGUAGACGUACAUGAGGAUCACCCAUGUAGAAGGCGAAUAUA [AJ 25]", "values": [
      {"measurement": "apparent KD of MS2 coat protein", "setting": "MS2 coat protein [1]", "result": 69.7, "unit": "nM"},
      {"measurement": "apparent KD of MS2 coat protein", "setting": "MS2 coat protein [2]", "result": 142, "unit": "nM"}
    ]},
    {"sequence": "AAAAAACAUGAGGAUCACCCAUGUGAGGAUAUCGGUAGUGAGGCCAUAGUGUCAGUAAUGAGAAGGCACAUAAA [Brourd 613 Mod 10 - Jieux - Exclusion 1]", "values": [
      {"measurement": "apparent KD of MS2 coat protein", "setting": "MS2 coat protein [1]", "result": 25.4, "unit": "nM"},
      {"measurement": "apparent KD of MS2 coat protein", "setting": "MS2 coat protein [2]", "result": 22.7, "unit": "nM"}
    ]},
    {"sequence": "AAAAAUGGAGGAUAUACAUGAGGAUCACCCAUGUGUGGGUAUACUGUGUCGGCGUCAGGUAGAAGGCCAAAAAA [Gilly Gone Silly 28 - Jieux - Exclusion 3]", "values": [
      {"measurement": "apparent KD of MS2 coat protein", "setting": "MS2 coat protein [1]", "result": 132, "unit": "nM"},
      {"measurement": "apparent KD of MS2 coat protein", "setting": "MS2 coat protein [2]", "result": 121, "unit": "nM"}
    ]},
    {"sequence": "AACAAGUCAGGAUAUUCGACAAGUAAAUAAGUAAAUCAAAAGAAGAAGGGACAUGAGGAUCACCCAUGUAAAUA [JR_Exc004_Sub401]", "values": [
      {"measurement": "apparent KD of MS2 coat protein", "setting": "MS2 coat protein [1]", "result": 32.5, "unit": "nM"},
      {"measurement": "apparent KD of MS2 coat protein", "setting": "MS2 coat protein [2]", "result": 21.3, "unit": "nM"}
    ]},
    {"sequence": "CUCUUGUGAGGAUAUCUAAGAAAAGAAGAGAAAGAAAAGAAAGAGAAGGCACAUGAGGAUCACCCAUGUAAGAA [EteRNA is fun!]", "values": [
      {"measurement": "apparent KD of MS2 coat protein", "setting": "MS2 coat protein [1]", "result": 29, "unit": "nM"},
      {"measurement": "apparent KD of MS2 coat protein", "setting": "MS2 coat protein [2]", "result": 56.1, "unit": "nM"}
    ]},
    {"sequence": "AAGAAGUGAGGAUAUACAUGAGGAUCACCCAUGUUAAGAAGAAUUUUAGAGAAAGAAGGUAGAAGGCACAAGAA [JR_Exclusion3_Sub5]", "values": [
      {"measurement": "apparent KD of MS2 coat protein", "setting": "MS2 coat protein [1]", "result": 34.7, "unit": "nM"},
      {"measurement": "apparent KD of MS2 coat protein", "setting": "MS2 coat protein [2]", "result": 35.3, "unit": "nM"}
    ]},
    {"sequence": "AAAAAAGGAGGAUAUACGUACAUGUCAAAAGACGUGAAGGGACAUGAGGAUCACCCAUGUAGAAGGCUUAAAAA [JL Stem Breaker 6]", "values": [
      {"measurement": "apparent KD of MS2 coat protein", "setting": "MS2 coat protein [1]", "result": 47.7, "unit": "nM"},
      {"measurement": "apparent KD of MS2 coat protein", "setting": "MS2 coat protein [2]", "result": 18.1, "unit": "nM"}
    ]},
    {"sequence": "AAGAAGUGAGGAUAUCGAAGACUGUCGAAAAGACAGUCGAACGAGAAGGCACAUGAGGAUCACCCAUGUGGGAG [Mat - Exaclusion 4 - Eli mod - D71]", "values": [
      {"measurement": "apparent KD of MS2 coat protein", "setting": "MS2 coat protein [1]", "result": 80.5, "unit": "nM"},
      {"measurement": "apparent KD of MS2 coat protein", "setting": "MS2 coat protein [2]", "result": 176, "unit": "nM"}
    ]},
    {"sequence": "AAAAAACAUGAGGAUCACCCAUGUGAGGAUAUGCUAUGGAAAAUAAAAAUAAAACAUAGCAGAAGGCACACCAA [Denovo 16]", "values": [
      {"measurement": "apparent KD of MS2 coat protein", "setting": "MS2 coat protein [1]", "result": 31.4, "unit": "nM"},
      {"measurement": "apparent KD of MS2 coat protein", "setting": "MS2 coat protein [2]", "result": 37.4, "unit": "nM"}
    ]},
    {"sequence": "AAAAAACAUGAGGAUCACCCAUGUAAGGAUAUACAAAACCCAUAUAAAAAGGGAAAAAGUAGAAGGUGCAAAAA [wbt round 1 mod 7]", "values": [
      {"measurement": "apparent KD of MS2 coat protein", "setting": "MS2 coat protein [1]", "result": 22.5, "unit": "nM"},
      {"measurement": "apparent KD of MS2 coat protein", "setting": "MS2 coat protein [2]", "result": 23.1, "unit": "nM"}
    ]},
    {"sequence": "AAAAAGUGAGGAUAUUCGGAUAGGAAAACGAAAACCUAUCCGAAGAAGGCACAUGAGGAUCACCCAUGUGAAAA [67% Ecls-II - Early G + late G segment 1]", "values": [
      {"measurement": "apparent KD of MS2 coat protein", "setting": "MS2 coat protein [1]", "result": 27.5, "unit": "nM"},
      {"measurement": "apparent KD of MS2 coat protein", "setting": "MS2 coat protein [2]", "result": 24.1, "unit": "nM"}
    ]},
    {"sequence": "UAUAGACAUGAGGAUCACCCAUGUGAGGAUAUCAGUAACUACAAAACAUCACAUACAAUGAGAAGGCACAGAAA [JR_Exc001_Sub014]", "values": [
      {"measurement": "apparent KD of MS2 coat protein", "setting": "MS2 coat protein [1]", "result": 40, "unit": "nM"},
      {"measurement": "apparent KD of MS2 coat protein", "setting": "MS2 coat protein [2]", "result": 49.8, "unit": "nM"}
    ]},
    {"sequence": "AAGAAGCUAGGAUAUACUAAAGAAAUGAAAAGAAAUAAAGAACAUGAGGAUCACCCAUGUAGAAGGAGCAAGAA [Djefare]", "values": [
      {"measurement": "apparent KD of MS2 coat protein", "setting": "MS2 coat protein [1]", "result": 42.3, "unit": "nM"},
      {"measurement": "apparent KD of MS2 coat protein", "setting": "MS2 coat protein [2]", "result": 18.9, "unit": "nM"}
    ]},
    {"sequence": "AAGAAACAUGAGGAUCACCCAUGUGAGGAUAUCUAAAAGAAAAGAAAAGAAAGAAGAAGGAGAAGGCACAAAGG [H—]", "values": [
      {"measurement": "apparent KD of MS2 coat protein", "setting": "MS2 coat protein [1]", "result": 34.3, "unit": "nM"},
      {"measurement": "apparent KD of MS2 coat protein", "setting": "MS2 coat protein [2]", "result": 29, "unit": "nM"}
    ]},
    {"sequence": "AAAACGUGAGGAUAUGCACCAAAAAAGGUAUUUCGGGUACGACAUGAGGAUCACCCAUGUAGAAGGCACGAAAA [Frodo Flailing 13 - Jieux - Exclusion 2]", "values": [
      {"measurement": "apparent KD of MS2 coat protein", "setting": "MS2 coat protein [1]", "result": 22.8, "unit": "nM"},
      {"measurement": "apparent KD of MS2 coat protein", "setting": "MS2 coat protein [2]", "result": 19.8, "unit": "nM"}
    ]}
  ]
}
